Experimental findings from patent EP3263700A1 are described below.

Common to all, as to experiment: cell-based or functional assay
For assay [1], the target named is purified human coagulation factor X (zymogen) (human) (UniProt P00742).
Assay [2] concerns the target purified coagulation factor VII (zymogen).
Assay [3] has as its target purified coagulation factor IX (zymogen).

Chain of UniProt P00742 (P00742 41-179 limits assumed, chain 1 of 2): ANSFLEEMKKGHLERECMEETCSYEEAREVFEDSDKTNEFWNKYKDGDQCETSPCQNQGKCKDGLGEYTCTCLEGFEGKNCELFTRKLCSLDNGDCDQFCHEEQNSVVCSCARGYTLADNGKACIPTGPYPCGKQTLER
Chain of UniProt P00742 (P00742 183-488 limits assumed, chain 2 of 2): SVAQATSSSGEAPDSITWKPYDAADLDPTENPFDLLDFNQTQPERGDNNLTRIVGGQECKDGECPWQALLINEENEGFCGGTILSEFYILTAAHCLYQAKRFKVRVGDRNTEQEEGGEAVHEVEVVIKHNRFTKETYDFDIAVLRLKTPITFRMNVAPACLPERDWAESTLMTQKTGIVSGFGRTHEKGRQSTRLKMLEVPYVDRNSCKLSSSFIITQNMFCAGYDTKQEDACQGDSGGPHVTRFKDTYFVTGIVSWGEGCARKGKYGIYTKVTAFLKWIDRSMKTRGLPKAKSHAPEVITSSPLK

With “C. canimorsus DPP7 (Capnocytophaga canimorsus 5 dipeptidyl peptidase 7) with a C-terminal Strep-His tag (enzyme)”, the PT (prothrombin time) in factor deficient plasma in assay [1] amounted to 10 fold; in assay [2] it was 30%. The substance further yielded an aPTT in factor deficient plasma in assay [3] of 2 fold.
